In patent publication US20120027677A1:
Read-outs that look alike come from different tables or passages of the source.

Legend:
[1] = target: T1, PrP^Sc, pathogenic form of the human prion protein (from CJD brain homogenate) (human), P04156
[2] = target: T1, PrP^Sc, pathogenic form of the human …; remark: listed apart in the source
[3] = target: T1, PrP^Sc, pathogenic form of the human …; remark: listed apart in the source
[4] = target: T1, PrP^Sc, pathogenic form of the human …; remark: listed apart in the source

GGGKKRPKPGG (modifications not checked) [peptide of SEQ ID NO: 68] gave an Exp. Mean (ELISA signal) [1] of 853 RLU, an Exp. Mean (as % of 68) [1] of 100% and a Mean (% of 68) [2] of 100%. It also gave a Mean (ELISA signal) [2] of 85 RLU, a Mean (ELISA signal) [3] of 138 RLU and an Exp. Mean (ELISA signal) [4] of 418 RLU. The Exp. Mean (as % of 68) [4] was 100%.
